Data reported in paper PMC5070868.

What was measured:
Assay in all cases: flow cytometry on cells; PBMCs of SLA class I haplotype-defined Microminipigs stained with X2F6 followed by anti-mouse IgG-FITC; lymphoid gate; also after TSST-1 or IFN-γ stimulation
[1] = target: classical class I SLA on PBMCs of Hp-10.0 homozygous Microminipigs
[2] = target: classical class I SLA on PBMCs of Hp-35.0 homozygous Microminipigs
[3] = target: classical class I SLA on PBMCs of Hp-17.0 homozygous Microminipigs

MFI [1]: 1900 | MFI [2]: 767 | MFI [3]: 122
B1: X2F6 monoclonal antibody (antibody, V domains shown)
VH: QVQLQQSGAELVKPGASVKLSCKASGYTFTSYDINWVRQRPEQGLEWIGWIYPGDGSTKYNEKFKGKATLTTDKSSSTAYMQLSRLTSEDSAVYFCASPYYYGSSPFAYWGQGTLVTVSA
VL: DIQMTQSPASLSASVGETVTITCRASENIYSYLAWYQQKQGKSPQLLVYNAKTLAEGVPSRFSGSGSGTQFSLKINSLQPEDFGSYYCQHHYGTPRTFGGGTKLEIK
